Where no end group is shown, it is not given here.
B1: trT2-49m polypeptide (other)
chain: EGCNRSWPFNLEEIKDLLPEMRAYWPDVIHSFPNRSRFWKHEWEKHGTCAAQVDALNSQKKYFGRSLELYRADFKDALARVYGVIPKIQCLPPSQDEEVQTIGQIELCLTKQDQQLQNCTEPGEQPSPKQEVWLANGAAESRGLRVCEDGPVFYPPPKKTKH
B2: truncated RNASET2 polypeptide trT2-49 (other)
chain: EGCNRSWPFNLEEIKDLLPEMRAYWPDVIHSFPNRSRFWKHEWEKHGTCAAQVDALNSQKKYFGRSLELYRELDLNSVLLKLGIKPSINYYQVADFKDALARVYGVIPKIQCLPPSQDEEVQTIGQIELCLTKQDQQLQNCTEPGEQPSPKQEVWLANGAAESRGLRVCEDGPVFYPPPKKTKH
notes: Described as amino acids 49-232 of full length, native RNASET2; also called truncated T2 polypeptide
B3: peptide K108-K133 (peptide)
peptide: KKYFGRSLELYRELDLNSVLLKLGIK
modifications: not fully specified
notes: Synthetic 26 aa peptide of human RNASET2 (helix 5 and 6), tested free in solution in ELISA and SPR; also called 22B; T2 peptide
B4: peptide A103-Q159 (peptide)
peptide: ALNSQKKYFGRSLELYRELDLNSVLLKLGIKPSINYYQVADFKDALARVYGVIPKIQ
notes: Synthetic peptide of human RNASET2, tested free in solution; also called 22A

What was measured:
[1] = molecular target: T1, actin (Example II solid-phase assay and BIAcore; source not stated) (Oryctolagus cuniculus (Rabbit), UniProt P68135 3-377); test: solid-phase actin binding assay: 500 ng actin coated per well, protein in 1:2 dilutions from 500 ng/well, rabbit anti-trT2-49 and goat anti-rabbit IgG-HRP, A655
Description: (§1) 96-well plates (MaxiSorp® flat-bottom 96-well plate, Fisher Scientific Inc., Fair Lawn, N.J.) were coated with 500 ng actin in 100 μl carbonate-bicarbonate buffer (pH 9.5) for 1 h at 37° C. The plate was washed once with TBS and then blocked with 3% BSA in 200 μl TBS buffer at 37° C., for 1 h. […] The wells were washed three times with TBST and then incubated with 100 μl goat anti-rabbit IgG-HRP (Jackson ImmunoResearch, West Grove, Pa.) diluted 1:10,000 in TBS, for 1 h at 37° C. Wells were then washed twice with TBST, and once with TBS before 100 μl substrate (1-step Ultra TMB-ELISA, Pierce, Fisher Scientific Inc.) were added. Absorbance at 655 nm was measured 10 min thereafter using a Power Wave 200 Microplate Scanning Spectrophotometer (Bio-Tek Instrument, Winooski, Vt.). Affinity was evaluated by double reciprocal plotting.
To further evaluate the strength of this interaction BIAcore analysis was performed in order to quantify and understand the kinetics of the interaction between these two molecules.

[2] = molecular target: T1, actin (Example II solid-phase assay and …); test: SPR, BIAcore 3000, actin amine-coupled to CM5 chip; column heads taken as printed
Description: (§2) SPR was performed on a BIAcore 3000 instrument (BIAcore, Uppsala, Sweden). Actin was diluted in 100 mM CH3COONa pH 4.6 to a final concentration of 20 μg/ml (200 μl total) resulting in ˜1 ng immobilized actin on a CM5 BIAcore sensor chip (GE Healthcare Bio-Sciences AB) using the standard BIAcore amine coupling chemistry protocol. The CM5 chip allows four separate flow cells to be operated in the BIAcore 3000 instrument used in these experiments. Coupling is achieved by activating the surface of the sensor chips with equal volumes of 50 mM N-hydroxysuccimide (NHS)/200 mM Nethyl-N-(3-[…])-carboiimide (EDC) (BIAcore, AB, Uppsala, Sweden) to form activated carboxyl groups. An actin solution (15 μg/ml) was run over the chip for 5 min at a rate of 10 μl/min, allowing the amine groups on the protein to react with the activated esters. In the final stage of immobilization, the surface was blocked by 1M ethanol amine, pH 8.0. […] Injections were performed simultaneously over all four channels and blank surface (a plain dextran matrix, channel 1) was used as control. The net signal was obtained by subtracting the blank signal from the signal of the immobilized surface. The association phase for protein or peptides binding to actin was followed for 4 min, and dissociation phases were monitored for 3 min. Surface regeneration between consecutive binding cycles included a 1 min injection of 1 mM NaOH. The response was monitored as a function of time (sensorgram) at 25° C. Multi-concentration data were globally fit using BIA evaluation 3.2 software.

[3] = molecular target: T1, actin (Example II solid-phase assay and …); test: SPR, BIAcore 3000, actin amine-coupled to CM5 chip
Description: as §2

[4] = molecular target: T1, actin (Example II solid-phase assay and …); test: solid-phase actin binding assay: 500 ng actin coated per well, protein in 1:2 dilutions from 500 ng/well, rabbit anti-trT2-49 and goat anti-rabbit IgG-HRP, A655; remark: listed apart in the source
Description: as §1
(§3) For further insight on the actin binding site within the hRNASET2 protein sequence 29 candidate peptides were tested for their ability to bind actin.

[5] = molecular target: T1, actin (Example II solid-phase assay and …); test: as above; remark: listed apart in the source
Description: as §1, §3

[6] = molecular target: T1, actin (Example II solid-phase assay and …); test: solid-phase actin binding assay (ELISA, immobilized actin), double reciprocal plot
Description: as §1, §3

[7] = molecular target: T1, actin (Example II solid-phase assay and …); test: solid-phase actin binding assay: 500 ng actin coated per well, peptide in 1:2 dilutions from 500 ng/well, rabbit anti-trT2-49 and goat anti-rabbit IgG-HRP, A655
Description: as §1, §3

[8] = molecular target: T1, actin (Example II solid-phase assay and …); test: not given; presumably the solid-phase actin binding assay of the 29 peptides

EC50 (read off the curve) [1] | Kd [2] | koff [2] | kon [3] | EC50 (read off the curve) [4] | EC50 (read off the curve) [5] | Kd [6] | EC50 (read off the curve) [7] | binding result [8] | Binder
~20 ng/100ul | 19.4 µM | 0.00969 s⁻¹ | 500 M⁻¹ s⁻¹ |  |  |  |  |  | B1
~30 ng/100ul | 7.72 µM | 0.0132 s⁻¹ | 1710 M⁻¹ s⁻¹ | ~30 ng/100ul | ~30 ng/100ul |  |  |  | B2
 | 14.2 µM | 0.0458 s⁻¹ | 3320 M⁻¹ s⁻¹ |  |  |  |  |  | B3
 | 0.00322 µM | 3.04 s⁻¹ |  |  |  | 0.068 µM | ~20 ng/100ul |  | B4
 |  |  |  |  |  |  |  | no binding | KKYFGRSLELYRELDL (also called K108-L123 (16 aa)) [peptide K108-L123]

Reference: patent US20160340659A1 (YISSUM RESEARCH AND DEVELOPMENT COMPANY OF THE HEBREW …, published 2016)
